Test results from the DeepSol protein solubility set.

Experiment: soluble on expression in E. coli; label from the status in PepcDB or PDB records

Sequence | soluble on expression in E. coli
MAVTEVKLNAPLAVGVWAKMLNTETSKALPIAPLMGKSKNSIIQVLDMLEKSAGDAVTSGLRVQLMGDGVSEGQTLEGNEEALQFMNEKVHINELTHAVRIKYEGSIDQQRIPFSLRQEAKDGLVDWYADRLSLMFFIQAAGYTAPWMQFEGRTITLKPVHYGFNAPSEPSKLRVIRPAKKKTDEELTKEDVFTLDLIDQAVERAKLANPRLRPVRVDGKSAYVMYLHPIQVTQLRTNTKSGQWLDITKAAYDGSGAKNPIFNGSLGMYNGVILREAEHVPNGVNSKTQEPVPSVRRAVLLGAQSIIMAYGRIGNGATGSNEENSETRYKLVEELFDYQREFGLAAKTIIGMKKSRYTLPHSDQGGQDFGTIVIPSFAEAS | not soluble
MGSSHHHHHHSSGLVPRGSHMKKRQLGTSDLHVSELGFGCMSLGTDETKARRIMDEVLELGINYLDTADLYNQGLNEQFVGKALKGRRQDIILATKVGNRFEQGKEGWWWDPSKAYIKEAVKDSLRRLQTDYIDLYQLHGGTIDDPIDETIEAFEELKQEGVIRYYGISSIRPNVIKEYLKRSNIVSIMMQYSILDRRPEEWFPLIQEHGVSVVVRGPVARGLLSRRPLPEGEGYLNYRYDELKLLRESLPTDRPLHELALQYCLAHDVVATVAAGASSIDQVKANVQAVEATPLTAEERQHIQKLAKAAVYEQHRE | soluble
ANVKLLLPYILKWEGGFVHDPADAGGATNKGVTIATWKRVGYDKDGDGDIDVEDLKLLTDDDVLNRVLKPFYWDRWKADLIESQKVANILVDWVWGSGKYGIVIPQRILGVQADGIVGNKTLQAVNSADPDELFESIFDARREFLEDITARSIKKYEDSIGRKATERELLRHTNKRFLRGWLNRLEDI | not soluble
MRPPPFPKPAHPEEALALQRALAKKVRLAGSLEGVRRIAALDASHKRGRPLVAVALLYDLEKGPLHVATALLPEEALFPYVPGLLSFREAPAYLEALAALPEAPEALLVDGQGVAHPRGLGIASHLGVHLDLPSVGVAKRLLYGRPEAPLPEEKGAAVRLLAPDGRPLGYVYRSRTGVKPLYVSPGHRVGLEEALRFVRRLPTRFRLPEPLRLAHLEAGRALKALDAAALEHHHHHH | not soluble
MKALKLYGVEDLRYEDNEKPVIESANDVIVKVRATGICGSDTSRYKKMGPYIKGMPFGHEFSGVVDAIGSDVTHVNVGDKVTGCPAIPCYQCEYCLKGEYARCEKLFVIGSYEPGSFAEYVKLPAQNVLKVPDNVDYIEAAMVEPSAVVAHGFYKSNIQPGMTVAVMGCGSIGLLAIQWARIFGAAHIIAIDIDAHKLDIATSLGAHQTINSKEENLEKFIENHYANQIDLAIESSGAKVTIGQILTLPKKGGEVVLLGIPYDDIEIDRVHFEKILRNELTVCGSWNCLSSNFPGKEWTATLHYMKTKDINVKPIISHFLPLEKGPETFDKLVNKKERFDKVMFTIY | not soluble
MVEATAQETDRPRFSFSIAAREGKARTGTIEMKRGVIRTPAFMPVGTAATVKALKPETVRATGADIILGNTYHLMLRPGAERIAKLGGLHSFMGWDRPILTDSGGFQVMSLSSLTKQSEEGVTFKSHLDGSRHMLSPERSIEIQHLLGSDIVMAFDECTPYPATPSRAASSMERSMRWAKRSRDAFDSRKEQAENAALFGIQQGSVFENLRQQSADALAEIGFDGYAVGGLAGGEGQDEMFRVLDFSVPMLPDDKPHYLMGVGKPDDIVGAVERGIDMFDCVLPTRSGRNGQAFTWDGPINIRNARFSEDLKPLDSECHCAVCQKWSRAYIHHLIRAGEILGAMLMTEHNIAFYQQLMQKIRDSISEGRFSQFAQDFRARYFARNS | soluble
MGSDKIHHHHHHMNKKPLVSVYIPTHNRAELLSNAVKSVINQTYKNIEIIICNDGSGDNTDDVVNKLQKEYKDIPFVYLKNDSPMGACFSRNRCIAAASGYYLTGLDDDDYFLPNRIESLIKVCNERKIDLVCSNLIFKDGNKLKRGKNNSGVITSIDMGYENLVGNQLLTRLSYFEDVGGFDTNFPAWQDYDLWYRIIMKFGPCIKTNEATYVMDVENDRKRISTSSKAHIGYRSFIEKHSETLSEEMKSSLFIRDLINRNKKIPLKTLLSSGRKVASFKHNMRLCFPVVNSIAAFVREIKK | not soluble
MSLAPRLKLRDITFFERPVQFARPFRFGAITINATTQLFVRVEIEVEGRGSAVGASAELLVPKWFDKRPEFSPAQTVDGLRRSLEIARGLYLARTGFLTAFDLHAACIGAQIATCAKKNIPALAAAYGLAEIDKAILDALLRGVETGFFDGMAGNVAGIDARLSPDLKDAEIAAFLSSRKPLPRVAIRHTVDLDDTVEGKGGVADAHENAGASYFKLKLRGDPAADAARLARIGKELDTLGRSYKVTLDANEQYADLAALQALMDRLDHDSDLRPIASRLLYVEQPMPRDITRQSPLGSLAARGFIIDEADDSYDAFPAARALGYHGISSKSCKGLYKSIVSATRAAKWSGGGEKFFVTGEDLTCQAGLAVQQDLALGAFLGVTHAERNGHHYVDGFGDTPAAEAAAFAAAHPDLYADAGQGIRLSIHDGDLLTGSLHAAGFATSVHPDWSALRPLEQPTSLQEQLAEGHHHHHH | soluble
MRPSAPNIWIWKVSNLASDPRETVSGEWYAARSNLSSAARLRHGGTLLLVLDAKDNHVITKAEIKAVEISHRVGTIPREIHFPDGSLFETSDNEGVDRLLGLYLPKRAGFVHRLEQFRPRLIGITAAAVLLAYGTYKLALPAVVELAVAMTPPIVPKIMSASTMQALDQTVFSASELPLEEQNAIRVQFSRIAAHAEGSPEDYKLNFRKGGYIGPNAFALPDGTLVLTDELVELAGGDRQMIIGVLAHEIGHVEYEHSLRQLYRAAGVAGLVMLIAGDVGSAMEDILTQGGGLLALSHSRDAERQADQRSVELMRKADLDPTAIERFFALLEEKLGDKGGTSIISTHPGTPQRRKAIIDYNASLDNKPAGNLEHHHHHH | not soluble
MKKRQSCRSFDYSKPVSKEDLISILEAGRLSPSACNSQPYEVFVAQGEKAKIIADAKMGSFNKFIDDCNTFLVIAEDNYSLPAKIGSLIKKVDFKAIDIGILTANLVNAASALNLETCILGVFDEKRIQKLIERKKRIRLVIALGYPKEGYPLREKTRKDFDDNMHFLA | not soluble
MRSTELIVERGPSRNEAHSMVNESPSNQPQEQFSLEPKWKTAAAPSCESSSEEAAYPKGNEEEEHNEARPRALCRLTDVSTDHYAKNPDSEEEDAQDEAEGDGSHVGAIPAEAATTARPHDLHKAKKKRSNHAKETKAAETLEKPAAPRKKKPMYKVNIGNVERHPPVPEGVNTPRSVMLCKECGVNPSELARYDRKHFQGAGVSDEVAELRYQSYEKRRCARMAQLKPAYKESIKYDLEDPVSVPAAKRKAQAAEEAPARPAAAAQAAAPPPKLLDEEAQMQRQFEAQHQRLLEQERRKTVTSGYDSDGRRRSPPRAGHFYGASVRSVGSAKSPGRYSRNTSVGARPTVDQPYSAAKIYSASIVESRPLTQSEVIMIDEINEREAHRIDTQERAFVIQENKQLMHVERELIRERLACVRVQKNAEDREKMQQKMHKRNEARQNVVAKRRKKLEAERQARIQDSVAEKAARCHTTNPYASLMLRQMSGFSTCHTSSSFPSQGADVSASREQSSEAE | soluble
MLSVDYENFDLISYLYNLVRQIPDGMVSTYGDLAEALGDPVAARSVGFMLSINKEPDYIPCYKVVPHDGSVGNYTHPLGSAEKMRRLIRDGITITNGHISNFEKVRFREFKTDYPLRKLRELQFKIGRLYDDRNDYSLDTIAAFDVSYKETRGYASKVVYNKGKIGAYVYSSDSMFPYIPGYLAFKEFKFIRALYDNETMILIDGNGILHPRFAGLATHAGVSLKTASIGIAKHLINCTVKGSDLLISGVVAGKMIGHHTIVSPGNRINVEEAGRLIEQREGKEMRSLLRLAHNLTRLHIETNGNIARYDFSTRNTAIQSSLEHHHHHH | not soluble
GMTRIASHRGGTLEFGDSTPHGFTATAAMALEEVEFDLHPTADGAIVVHHDPTLDATTDMTGAIVDMTLAKVKTATIRYGAGSHPMTLEELCALYVDSHVNFRCEIKPGVDGLPYEGFVALVIAGLERHSMLERTTFSSFLLASMDELWKATTRPRLWLVSPSVLQQLGPGAVIETAIAHSIHEIGVHIDTADAGLMAQVQAAGLDFGCWAAHTPSQITKALDLGVKVFTTDRPTLAIALRTEHRMEASV | soluble
MIRNPKIYIIILNYNAYEDTLECVKSIGNIDYDNYELVLVDNSSTDDSYVKLKESLPSYNIIKSKENLGYANGNNIGIKYALENGADYICILNNDVVVEKDFLNKLVDKIIEKEDVGIVGSCICDYYRREIIQGMGAHINLYFAAARRYFKGKNYNEIEKKDIFVDYLEGACFLVKSEVFEKIGLIPENYFLFFEETEFCTRAINAGYKIMCIYESKVYHKGSATINKFGSLSYAYLNRNRVIFVRRNSKWYQKIIFAIYIFIEAFGRIVIRKEPLTLFKYILGGFKSNKESIDVIDVKSYVKLEHHHHHH | not soluble
MGSDKIHHHHHHMLQLNSPHVHNLFNTPFSAAIMDDVVIGLEVHVQLNRLRTKLFCSCPLNYHQSPPNTHVCPVCLGMPGAMPVINKEAVKAAVKVAMALNAEIQPFTVFDRKNYFYPDLPKGFQISQYDRPLALGGYVTIELDGQEKRIQLKRVHMEEDPGKLSYKGSITTAKYSLIDYNRSGAPLLEIVTEPVMNSPKEARLFLNKLRMILEYLEVFDGDLEGAMRVDANISIRGSGRVEIKNISSFKGVEKALSYEIMRQKNLLQRGRSVVRETRHFDEARNITVSLRSKEEEQDYRYFPEPDLVPVLTEEIVREVEGTLPEMPEEKRERLKRQYGIGDNFAKVLILDVKMADYFEEVAKLVDPKLAASWIVDVLRGELNYRDWSFAKCWEVFKPEEFAKLLKYFEEDRITEKGVVEVIRTKLDEGGEIDAIIQKKGLFAIPKEEIIKFCKEAIEENPKAVEDYLSGKRQALNFLVGQVMKKTRGRADPADTAKLIEEMLS | not soluble
LVLKVVTVTRNLDPDDTARKKAPPPPKRAPTTALTLRSKSMTSELEELVDKDKPEEIVPASKPSRAAENMAVEPRVATIKQRPSSRCFPAGSDMNSVYERQGIAVMTPTVPGSPKAPFLGIPRGTMRRQKSIDSRIFLSGITEEERQFLAPPMLKFTRSLSMPDTSEDIPPPPQSVPPSPPPPSPTTYNCPKSPTPRVYGTIKPAFNQNSAAKVSPATRSDTVATMMREKGMYFRRELDRYSLDSEDLYSRNAGPQANFRNKRGQMPENPYSEVGKIASKAVYVPAKPARRKGMLVKQSNVEDSPEKTCSIPIPTIIVKEPSTSSSGKSSQGSSMEIDPQAPEPPSQLRPDESLTVSSPFAAAIAGAVRDREKRLEARRNSPAFLSTDLGDEDVGLGPPAPRTRPSMFPEEGDFADEDSAEQLSSPMPSATPREPENHFVGGAEASAPGEAGRPLNSTSKAQGPESSPAVPSASSGTAGPGNYVHPLTGRLLDPSSPLALALSARDRAMKESQQGPKGEAPKADLNKPLYIDTKMRPSLDAGFPTVTRQNTRGPLRRQETENKYETDLGRDRKGDDKKNMLIDIMDTSQQKSAGLLMVHTVDATKLDNALQEEDEKAEVEMKPDSSPSEVPEGVSETEGALQISAAPEPTTVPGRTIVAVGSMEEAVILPFRIPPPPLASVDLDEDFIFTEPLPPPLEFANSFDIPDDRAASVPALSDLVKQKKSDTPQSPSLNSSQPTNSADSKKPASLSNCLPASFLPPPESFDAVADSGIEEVDSRSSSDHHLETTSTISTVSSISTLSSEGGENVDTCTVYADGQAFMVDKPPVPPKPKMKPIIHKSNALYQDALVEEDVDSFVIPPPAPPPPPGSAQPGMAKVLQPRTSKLWGDVTEIKSPILSGPKANVISELNSILQQMNREKLAKPGEGLDSPMGAKSASLAPRSPEIMSTISGTRSTTVTFTVRPGTSQPITLQSRPPDYESRTSGTRRAPSPVVSPTEMNKETLPAPLSAATASPSPALSDVFSLPSQPPSGDLFGLNPAGRSRSPSPSILQQPISNKPFTTKPVHLWTKPDVADWLESLNLGEHKEAFMDNEIDGSHLPNLQKEDLIDLGVTRVGHRMNIERALKQLLDR | soluble
